Legend:
Experiment in all cases: HDX-MS
Murine RelA(19-321) = Murine RelA(19-321) (mouse, UniProt Q04207 19-321)
[1] = target: Murine dimerization domain p50(248-350)/RelA(190-321) (mouse, UniProt P25799 248-350; Q04207 190-321)
[2] = target: T1, Murine N-terminal hexahistidine-p50(39-350) (mouse, UniProt P25799 39-350)
T1 sequence (looked up): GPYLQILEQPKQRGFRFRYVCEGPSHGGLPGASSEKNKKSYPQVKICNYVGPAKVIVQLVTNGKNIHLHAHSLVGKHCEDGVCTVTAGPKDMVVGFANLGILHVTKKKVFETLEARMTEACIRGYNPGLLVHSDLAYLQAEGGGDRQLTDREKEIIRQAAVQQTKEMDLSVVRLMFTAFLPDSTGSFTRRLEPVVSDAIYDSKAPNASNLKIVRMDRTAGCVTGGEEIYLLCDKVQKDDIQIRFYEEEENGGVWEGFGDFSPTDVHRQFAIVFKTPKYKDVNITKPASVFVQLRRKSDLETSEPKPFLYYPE

Measured: binding result

Chain of Murine RelA(19-321) (Q04207 19-321): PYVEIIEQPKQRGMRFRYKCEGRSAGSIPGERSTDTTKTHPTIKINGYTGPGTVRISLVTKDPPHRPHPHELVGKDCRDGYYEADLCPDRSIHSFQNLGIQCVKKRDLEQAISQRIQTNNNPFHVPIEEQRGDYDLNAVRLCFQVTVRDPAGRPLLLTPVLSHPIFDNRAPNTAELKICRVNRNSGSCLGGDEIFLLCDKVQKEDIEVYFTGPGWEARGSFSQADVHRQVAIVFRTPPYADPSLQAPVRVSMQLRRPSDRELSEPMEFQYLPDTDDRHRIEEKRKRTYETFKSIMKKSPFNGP
Chain of Murine dimerization domain p50(248-350)/RelA(190-321) (Q04207 190-321, one chain of several): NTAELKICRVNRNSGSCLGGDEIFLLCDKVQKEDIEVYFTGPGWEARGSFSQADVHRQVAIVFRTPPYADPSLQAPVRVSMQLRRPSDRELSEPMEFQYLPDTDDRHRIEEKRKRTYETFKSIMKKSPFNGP

B1: Homo sapiens IκBα(67-287) (domain or fragment, human, UniProt P25963 67-287, looked up)
chain: KQQLTEDGDSFLHLAIIHEEKALTMEVIRQVKGDLAFLNFQNNLQQTPLHLAVITNQPEIAEALLGAGCDPELRDFRGNTPLHLACEQGCLASVGVLTQSCTTPHLHSILKATNYNGHTCLHLASIHGYLGIVELLVSLGADVNAQEPCNGRTALHLAVDLQNPDLVSLLLKCGADVNRVTYQGYSPYQLTWGRPSTRIQQQLGQLTLENLQMLPESEDEE
binds: all assays above

Reference: article PMC5389416 (Journal of molecular biology, 2017)
